Experimental data: US9212226B2, “Amino acid sequences directed against CXCR4 and other GPCRs and compounds comprising the same” (Ablynx N.V., priority 2008, dated 2015)
“Also recorded” adds a separate entry of the source.

How the values were obtained:
[1] = molecular target: T1, CXCR4 (Homo sapiens, UniProt P61073); experiment: [125I]-CXCL12 competition binding on membranes from HEK293T cells transiently expressing CXCR4
Procedure: (§1) HEK293T cells were maintained at 37° C. in a humidified 5% CO2, 95% air atmosphere in Dulbecco's modified Eagle's medium (DMEM) containing 2 mM L-glutamine, 50 IU/ml penicillin, 50 μg/ml streptomycin, and 10% (v/v) fetal calf serum. Jurkat cells were cultured in a humidified 5% CO2, 95% air atmosphere in a 1:1 mixture of Dulbecco's modified Eagle's medium (DMEM) and Ham's F12 medium containing 2 mM L-glutamine, 50 IU/ml penicillin, 50 μg/ml streptomycin, and 10% (v/v) fetal calf serum. […] [^125 I]-Labelling— Radiolabeling of Nanobodies with ^125I was performed using the Iodo-gen method (Pierce, Rockford, Ill.) according to the manufacturer's protocol. ^125I-labeled Nanobodies was separated from free iodine (>99%) using a Sephadex G-25 gel filtration column (Amersham Biosciences, Piscataway, N.J.). […] Competition Binding Assays— Membranes from HEK293T cells transiently expressing CXCR3 or CXCR4 were prepared 48 h after transfection as follows. Cells were washed and scraped from the cell culture dishes with ice-cold PBS containing 1 mm EDTA. The scraped cells were pelleted at 1500×g for 10 min at 4° C. The pellet was washed and then resuspended in ice-cold membrane buffer (15 mM Tris, pH 7.5, 1 mM EGTA, 0.3 mM EDTA, and 2 mM MgCl2). The cell suspension was homogenized by 10 strokes at 1200 rpm using a Teflon-glass homogenizer and rotor and further subjected to three freeze-thaw cycles using liquid nitrogen. Membranes were separated by centrifugation at 40,000 g for 25 min at 4° C. The membrane pellet was washed and resuspended in ice-cold Tris-sucrose buffer (20 mM Tris, pH 7.4, and 250 mM sucrose) and frozen in liquid nitrogen. The total protein was determined using a Bradford assay (Bio-Rad). […] Membranes were then harvested over polyethylenimine (0.5%)-treated Whatman GF/C filter plates and washed three times with ice cold binding buffer containing 500 mM NaCl. Plates were counted by liquid scintillation. Inositol Phosphate Accumulation Assay— 24 hours post transfection with pcDNA3.1-CXCR4 and pcDNA1-HA-mG {alpha} qi5 (see Verzijl et al, 2008 supra), 250.000 cells were seeded into 24-wells plates and labelled overnight using inositol-free minimal essential medium supplemented with 1 μCi myo-[2-^3H]-inositol. The next day, the cells were washed once to remove not incorporated myo-[2-^3H]-inositol. […] In agonist experiments, the cells were directly stimulated with test compounds and LiCl (10 mM) in assay buffer for 2 h at 37° C. The stimulation was stopped by aspirating the stimulation medium and adding ice-cold 10 mM formic acid. The accumulated inositol phosphates were isolated by anion exchange chromatography and counted by liquid scintillation. CRE Reporter Gene Assay— HEK239T cells were transfected with pCRE/β-galactosidase (Chen W, Shields T S, Stork P J S, Cone R D (1995) Anal Biochem 226:349-354) and plasmids (pcDEF3 or pcDNA3.1) encoding the indicated receptors. 40,000 transfected cells per well were seeded into 96 well plates and grown in DMEM supplemented with 10% fetal calf serum. The medium was replaced 32 h after transfection by serum-free DMEM supplemented with 0.5% bovine serum albumin and ligands as indicated. […] The β-galactosidase activity was determined by the measurement of absorption at 420 nm with a PowerwaveX340 plate reader (Bio-Tek Instruments Inc., Winooski, Vt.) after incubation with the assay buffer when the OD420 value for forskolin (3 μM) controls reached 0.4-0.6. Chemotaxis Assay— The chemotactic responsiveness of Jurkat 3D cells was assessed using ChemoTx™ plates (Receptor Technologies Ltd., Oxon, UK) in which a upper cell-containing compartment is separated from a lower chemoattractant-containing compartment by a polyvinylpyrollidone-free polycarbonate filter with 5-μm pores. Cells were harvested, washed and resuspended in RPMI containing 0.5% bovine serum albumin and then loaded to 150,000 cells per well in a volume of 25 μl into the upper compartment of the chemotaxis chamber.
Target sequence in this assay (P61073 whole entry): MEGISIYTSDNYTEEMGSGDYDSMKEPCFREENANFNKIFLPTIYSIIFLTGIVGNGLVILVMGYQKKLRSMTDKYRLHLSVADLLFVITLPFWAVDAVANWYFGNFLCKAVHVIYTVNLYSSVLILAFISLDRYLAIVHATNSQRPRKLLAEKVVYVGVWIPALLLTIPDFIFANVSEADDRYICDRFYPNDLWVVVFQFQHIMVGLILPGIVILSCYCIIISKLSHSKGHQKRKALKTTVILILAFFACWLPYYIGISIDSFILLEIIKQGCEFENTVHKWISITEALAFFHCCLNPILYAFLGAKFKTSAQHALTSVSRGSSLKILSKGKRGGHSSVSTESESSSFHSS

[2] = molecular target: T1, CXCR4; experiment: [125I]-238D2 competition binding on membranes from HEK293T cells transiently expressing CXCR4
Procedure: as §1
Target sequence in this assay (P61073 whole entry): as above

[3] = molecular target: T1, CXCR4; experiment: [125I]-238D4 competition binding on membranes from HEK293T cells transiently expressing CXCR4
Procedure: as §1
Target sequence in this assay (P61073 whole entry): as above

[4] = molecular target: CXCR4 (N119A) (Homo sapiens, UniProt P61073, N119A); experiment: Basal inositol phosphate accumulation in HEK293T cells expressing CXCR4 (N119A); format: cell-based
Procedure: (§2) HEK293T cells were maintained at 37° C. in a humidified 5% CO2, 95% air atmosphere in Dulbecco's modified Eagle's medium (DMEM) containing 2 mM L-glutamine, 50 IU/ml penicillin, 50 μg/ml streptomycin, and 10% (v/v) fetal calf serum. Jurkat cells were cultured in a humidified 5% CO2, 95% air atmosphere in a 1:1 mixture of Dulbecco's modified Eagle's medium (DMEM) and Ham's F12 medium containing 2 mM L-glutamine, 50 IU/ml penicillin, 50 μg/ml streptomycin, and 10% (v/v) fetal calf serum. […] [^125 I]-Labelling— Radiolabeling of Nanobodies with ^125I was performed using the Iodo-gen method (Pierce, Rockford, Ill.) according to the manufacturer's protocol. ^125I-labeled Nanobodies was separated from free iodine (>99%) using a Sephadex G-25 gel filtration column (Amersham Biosciences, Piscataway, N.J.). […] Competition Binding Assays— Membranes from HEK293T cells transiently expressing CXCR3 or CXCR4 were prepared 48 h after transfection as follows. Cells were washed and scraped from the cell culture dishes with ice-cold PBS containing 1 mm EDTA. The scraped cells were pelleted at 1500×g for 10 min at 4° C. The pellet was washed and then resuspended in ice-cold membrane buffer (15 mM Tris, pH 7.5, 1 mM EGTA, 0.3 mM EDTA, and 2 mM MgCl2). The cell suspension was homogenized by 10 strokes at 1200 rpm using a Teflon-glass homogenizer and rotor and further subjected to three freeze-thaw cycles using liquid nitrogen. Membranes were separated by centrifugation at 40,000 g for 25 min at 4° C. The membrane pellet was washed and resuspended in ice-cold Tris-sucrose buffer (20 mM Tris, pH 7.4, and 250 mM sucrose) and frozen in liquid nitrogen. The total protein was determined using a Bradford assay (Bio-Rad). Periplasmas (1:10) or ligands were pre-incubated with membranes in binding buffer (50 mM HEPES (pH 7.4), 1 mM CaCl2, 5 mM MgCl2, 100 mM NaCl, 0.5% bovine serum albumin) supplemented with 0.5% BSA for 1 h at 22° C. before the addition of [^125I]-CXCL12 (40 pM) or [^125I]-238D2 (3 nM) or [^125I]-238D4 (3 nM) for additional 2 h at 22° C. […] Membranes were then harvested over polyethylenimine (0.5%)-treated Whatman GF/C filter plates and washed three times with ice cold binding buffer containing 500 mM NaCl. Plates were counted by liquid scintillation. Inositol Phosphate Accumulation Assay— 24 hours post transfection with pcDNA3.1-CXCR4 and pcDNA1-HA-mG {alpha} qi5 (see Verzijl et al, 2008 supra), 250.000 cells were seeded into 24-wells plates and labelled overnight using inositol-free minimal essential medium supplemented with 1 μCi myo-[2-^3H]-inositol. The next day, the cells were washed once to remove not incorporated myo-[2-^3H]-inositol. […] In agonist experiments, the cells were directly stimulated with test compounds and LiCl (10 mM) in assay buffer for 2 h at 37° C. The stimulation was stopped by aspirating the stimulation medium and adding ice-cold 10 mM formic acid. The accumulated inositol phosphates were isolated by anion exchange chromatography and counted by liquid scintillation. CRE Reporter Gene Assay— HEK239T cells were transfected with pCRE/β-galactosidase (Chen W, Shields T S, Stork P J S, Cone R D (1995) Anal Biochem 226:349-354) and plasmids (pcDEF3 or pcDNA3.1) encoding the indicated receptors. 40,000 transfected cells per well were seeded into 96 well plates and grown in DMEM supplemented with 10% fetal calf serum. The medium was replaced 32 h after transfection by serum-free DMEM supplemented with 0.5% bovine serum albumin and ligands as indicated. […]

[5] = molecular target: T1, CXCR4; experiment: Phage ELISA binding assay on CHO-CXCR4 versus CHO membranes; set-up: expressed in transfected cells; host or cells: CHO cells (membrane preparation); details: monoclonal phages, CHO-CXCR4 vs CHO membranes
Procedure: FIG. 2. Results from Phage ELISA (as described in example 1.5).
In order to determine binding specificity of the Nanobodies, 15 ul of the produced phage were tested in an Phage ELISA binding assay.
In short, 2 ug in 100 ul PBS of membrane expressing either CXCR4 (CHO-CXCR4) or a non relevant GPCR(CHO) were coated directly on Maxisorp microtiter plates (Nunc) overnight at 4 C. Free binding sites were blocked using 4% Marvel in PBS for 1 h. Next, 15 ul of monoclonal phages was added in 100 ul 1% Marvel PBS for 2 hours. […] Binding specificity (binding to CHO-CXCR4) was determined based on OD values compared to controls (binding to CHO).
Target sequence in this assay (P61073 with tags, fused parts or gaps isoform P61073-2 limits assumed): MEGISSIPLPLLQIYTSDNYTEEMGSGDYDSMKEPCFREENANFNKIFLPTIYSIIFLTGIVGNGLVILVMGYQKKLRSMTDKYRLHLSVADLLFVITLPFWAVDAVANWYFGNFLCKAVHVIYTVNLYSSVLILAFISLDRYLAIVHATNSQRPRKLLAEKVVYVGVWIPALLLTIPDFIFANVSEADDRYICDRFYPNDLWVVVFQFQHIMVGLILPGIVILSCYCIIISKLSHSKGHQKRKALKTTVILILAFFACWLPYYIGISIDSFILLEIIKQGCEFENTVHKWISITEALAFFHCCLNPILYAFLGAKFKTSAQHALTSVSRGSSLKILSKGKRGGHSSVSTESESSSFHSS

[6] = system: Jurkat cells endogenously expressing CXCR4; experiment: Chemotaxis assay (ChemoTx plates) with Jurkat cells towards CXCL12; format: cell-based
Procedure: as §2, with “indicated. Following 16 h of ligand incubation, the medium was removed, the cells were lysed in 100 μl of assay buffer (100 mM sodium phosphate buffer at pH 8.0, 4 mM 2-nitrophenol-β-D-pyranoside, 0.5% Triton X-100, 2 mM MgSO4, 0.1 mM MnCl2, and 40 mM β-mercaptoethanol) and incubated at room temperature.” for “indicated.”

[7] = membranes from HEK293T cells transiently expressing CXCR4, mean ± S.E.M.

Chain of CXCR4 (N119A) (P61073 whole entry N119A): as the sequence (P61073 whole entry) above, with N119A counted along it

Molecule: c1cc(CN2CCCNCCNCCCNCC2)ccc1CN1CCCNCCNCCCNCC1 [AMD3100, reference compound]
- Displacem. (%) of [125I]-CXCL12 (maximal displacement) [1, 7]: 94 ± 2%
- displacement of [125I]-238D2 from CXCR4 ([2]; [125I]-238D2 3 nM): displaces
- Displacem. (%) of [125I]-238D2 (maximal displacement) [2, 7]: 102 ± 1%
- displacement of [125I]-238D4 from CXCR4 ([3]; [125I]-238D4 3 nM): displaces
- Displacem. (%) of [125I]-238D4 (maximal displacement) [3, 7]: 99 ± 4%
- functional profile at CXCR4 (N119A) ([4]; ligand-induced alteration of basal inositol phosphate accumulation, listed as plerixafor): neutral antagonist; also recorded: Neither significant agonistic nor inverse antagonistic activity
- effect on the nanobody-induced reduction of basal inositol phosphate accumulation ([4]; with 238D4, L3 and L8): antagonized

Molecule: CXCL12: stromal-derived-factor-1, the natural (endogenous) ligand for CXCR4 [reference compound]
- stimulation of the mutant receptor ([4]; inositol phosphate accumulation): 0.4 fold over basal

B1: 238F3: Nanobody (VHH) raised against human CXCR4, SEQ ID NO: 247 (protein)
VHH: EVQLVESGGGLAQAGGSLRLSCAASGRTYAMGWFRQAPGKEREFVTTSRLITDNIIYADSVKGRFTLTRDNGKNTVYLQMDSLKPDDTAVYFCAARQNYSRSVFGAKDYDYWGQGTQVTVSS
modifications: Nanobody, Nanobody constructs or fragments thereof
- specificity toward CXCR4 expressing membrane compared to non-expressing membrane [5]: high specificity

B2: 238D2-15GS-238D4: heterobivalent Nanobody, 238D2 linked to 238D4 by a 15 amino acid GGGGS linker (protein)
chain: EVQLVESGGGLVQTGGSLRLSCAASGFTFSSYAMSWVRQAPGKGLEWVSGIKSSGDSTRYAGSVKGRFTISRDNAKNMLYLQMYSLKPEDTAVYYCAKSRVSRTGLYTYDNRGQGTQVTVSSGGGGSGGGGSGGGGSEVQLMESGGGLVQAGGSLRLSCAASGRTFNNYAMGWFRRAPGKEREFVAAITRSGVRSGVSAIYGDSVKDRFTISRDNAKNTLYLQMNSLKPEDTAVYTCAASAIGSGALRRFEYDYSGQGTQVTVSS
modifications: Nanobody, Nanobody constructs or fragments thereof
notes: heterobivalent Nanobody, 238D2 linked to 238D4 by a 15 amino acid GGGGS linker
- Rel. potency, relative to monovalent 238D2 ([1]; [125I]-CXCL12 displacement, potency relative to those of monovalent 238D2): 28
- Rel. potency, relative to monovalent 238D4 ([1]; [125I]-CXCL12 displacement, potency relative to those of monovalent 238D4): 17
- Displacem. (%) of [125I]-CXCL12 (maximal displacement), bivalent Nanobodies [1, 7]: 92 ± 6%
- pKi, [125I]-CXCL12, bivalent Nanobodies [1, 7]: 9.45 ± 0.09
- inhibition of migration of Jurkat cells towards CXCL12 ([6]; 300 pM CXCL12): fully antagonized
- Imax (%), Chemotaxis, bivalent Nanobodies ([6]; Jurkat/0.3 nM CXCL12, mean ± S.E.M.): 107 ± 5%
- pKi, antagonism of the chemoattractant effects of CXCL12 ([6]; n=3): 9.86±0.04
